In assay [1] the target is T1, human SLC34A2 (human, UniProt O95436 1-690).
T1 sequence (looked up): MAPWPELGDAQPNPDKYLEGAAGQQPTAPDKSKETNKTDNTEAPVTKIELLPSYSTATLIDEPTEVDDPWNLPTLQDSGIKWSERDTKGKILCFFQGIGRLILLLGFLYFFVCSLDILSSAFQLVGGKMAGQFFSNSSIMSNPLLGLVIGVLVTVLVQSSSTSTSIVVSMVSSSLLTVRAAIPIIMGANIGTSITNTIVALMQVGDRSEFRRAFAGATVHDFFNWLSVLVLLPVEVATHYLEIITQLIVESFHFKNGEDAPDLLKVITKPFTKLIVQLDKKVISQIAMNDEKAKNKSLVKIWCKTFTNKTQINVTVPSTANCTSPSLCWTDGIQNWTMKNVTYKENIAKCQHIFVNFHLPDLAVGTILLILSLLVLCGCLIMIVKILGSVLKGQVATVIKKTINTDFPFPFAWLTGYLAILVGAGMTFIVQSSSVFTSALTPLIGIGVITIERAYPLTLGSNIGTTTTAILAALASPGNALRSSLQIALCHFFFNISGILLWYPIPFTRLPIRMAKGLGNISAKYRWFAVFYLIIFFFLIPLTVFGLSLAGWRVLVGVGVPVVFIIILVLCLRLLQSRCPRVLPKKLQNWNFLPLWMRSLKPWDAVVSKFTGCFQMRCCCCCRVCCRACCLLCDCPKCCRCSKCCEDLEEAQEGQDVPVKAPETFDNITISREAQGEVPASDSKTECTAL
The assay can be described thus: FACS, OVCAR3 cells. A general note: A flow cytometer gives signals particle by particle.

For assay [2], the target named is T1, human SLC34A2. The assay can be described thus: FACS, RMG-1 cells. The procedure, abridged: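 Flow-cytometric binding of chimeric antibodies (8-point, 4-fold dilutions from 200 nM) to RMG-1 cells, 60 min at 4° C, followed by fluorescent secondary antibody for 30 min at 4° C.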
For assay [3], the target named is T2, Rhesus SLC34A2 (Rhesus, UniProt F7HDA3 1-690).
T2 construct: whole, on cells
T2 sequence: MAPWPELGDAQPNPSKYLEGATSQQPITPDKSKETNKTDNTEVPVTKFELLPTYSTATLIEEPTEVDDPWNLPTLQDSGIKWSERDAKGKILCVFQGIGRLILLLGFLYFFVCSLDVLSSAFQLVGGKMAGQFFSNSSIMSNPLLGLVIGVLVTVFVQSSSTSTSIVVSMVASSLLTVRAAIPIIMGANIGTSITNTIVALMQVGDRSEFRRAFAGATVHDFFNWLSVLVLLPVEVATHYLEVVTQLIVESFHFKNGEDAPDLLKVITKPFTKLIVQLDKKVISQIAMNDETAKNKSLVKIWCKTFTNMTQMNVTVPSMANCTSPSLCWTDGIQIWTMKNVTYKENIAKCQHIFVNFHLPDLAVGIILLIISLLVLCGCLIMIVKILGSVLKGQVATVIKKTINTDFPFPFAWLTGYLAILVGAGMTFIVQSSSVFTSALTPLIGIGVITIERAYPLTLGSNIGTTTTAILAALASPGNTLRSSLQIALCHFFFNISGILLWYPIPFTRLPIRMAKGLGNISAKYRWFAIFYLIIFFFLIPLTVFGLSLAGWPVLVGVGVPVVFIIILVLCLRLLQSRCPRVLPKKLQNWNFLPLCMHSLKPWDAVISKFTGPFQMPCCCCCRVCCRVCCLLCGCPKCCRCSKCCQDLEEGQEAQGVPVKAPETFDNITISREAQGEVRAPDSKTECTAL
As to the kind of experiment: FACS, HEK293/Rhesus SLC34A2 cells.

The target of assay [4] is T1, human SLC34A2. As to the kind of experiment: cell-based or functional assay.
For assay [5], the target named is T1, human SLC34A2. As to the kind of experiment: FACS, OVCAR3 cells. The gist of the method:
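Chimeric hIgG1 antibodies titrated from 200 nM (4-fold, 8 points) on OVCAR3 cells or HEK293 cells expressing human SLC34A2, 60 min at 4° C. Bound antibody detected with fluorescent secondary antibody (30 min, 4° C) and measured by flow cytometry.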

The target in assay [6] is T1, human SLC34A2. The assay can be described thus: FACS, HEK293/human SLC34A2 cells. On the procedure: Briefly, OVCAR3 cells or HEK293 cells expressing human SLC34A2 were incubated with chimeric antibodies (from 200 nM, 4 folds dilution, 8 points). After incubation at 4° C. for 60 minutes, the cells were washed with FACS buffer twice, then stained with fluorescent conjugated secondary antibody at 4° C. for 30 minutes. After that the cells were washed twice and analyzed by flow cytometry.

The target in assay [7] is T1, human SLC34A2. As to the kind of experiment: cell-based or functional assay. The source holds these as a separate data set.
Assay [8] deals with T1, human SLC34A2. The assay can be described thus: FACS, HEK293/human SLC34A2 cells. The gist of the method: (§1)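 Each cell line was labeled with humanized antibody (4° C., 60 min), then with a fluorescent conjugated secondary (4° C., 30 min), with double washes after each step; fluorescence was read by flow cytometry.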
This is another data set of the same source.

Assay [9] addresses T1, human SLC34A2. As to the kind of experiment: cell-based or functional assay. This is another data set of the same source.
In assay [10] the target is T1, human SLC34A2. As to the kind of experiment: FACS, HEK293/human SLC34A2 cells. On the procedure: The PTM-derisked VH chains were first tested for their impact on target binding. Cell based binding of PTM Abs on human SLC34A2 expressing cells were assessed using flow cytometry. Briefly, the HEK293/H_SLC34A2 cells were incubated with PTM Abs (from 200 nM, 4 folds dilution, 8 points). After incubation at 4° C. for 60 minutes, the cells were washed with FACS buffer twice, then stained with fluorescent conjugated secondary antibody at 4° C. for 30 minutes. After that the cells were washed twice and analyzed by flow cytometry.
The source holds these as a separate data set.

Assay [11] concerns the target T1, human SLC34A2. As to the kind of experiment: FACS, OVCAR3 cells. The source holds these as a separate data set.
The target of assay [12] is T1, human SLC34A2. The assay can be described thus: FACS, OVCAR3 cells. The source holds these as a separate data set.
Assay [13] concerns the target T2, Rhesus SLC34A2. As to the kind of experiment: FACS, HEK293/Rhesus SLC34A2 cells. The source holds these as a separate data set.
Assay [14] addresses T2, Rhesus SLC34A2. The assay can be described thus: FACS, HEK293/Rhesus SLC34A2 cells. The source holds these as a separate data set.
The target of assay [15] is T1, human SLC34A2. As to the kind of experiment: FACS, RMG-1 cells. The procedure, abridged: as §1
This is another data set of the same source.

Assay [16] deals with T1, human SLC34A2. As to the kind of experiment: FACS, OVCAR3 cells. The gist of the method:
as §1
This is another data set of the same source.

For assay [17], the target named is T1, human SLC34A2. The assay can be described thus: FACS, OVCAR3 cells. The source holds these as a separate data set.

Read-outs that look alike come from different tables or passages of the source.

Broadly, the EC50 is the concentration that produces a half-maximal response. High values mean lower potency in that assay, low ones higher potency in that assay. As to hIgG1 Isotype (antibody), in the assay with human SLC34A2 [1], the half-maximal effective concentration (EC50) was 2900 nM and the Top (MFI) was 1570 MFI.

B1: xi71F7D4 hIgG1 (antibody, V domains shown)
VH: DVKLVESGGDLVKLGGSLKLSCAASGFTFSNYYMSWVRQTPEKRLELVAVINSNGGTTYYPDNMKGRFTISRDNAKNTLYLQTSSLKSEDTALYYCGRHEHYYGTNIAWFAYWGQGTLVTVSA
VL: DIVMTQSHKFMSTSVGDRVSITCKASQDVTTAVAWYQQKPGQSPKLLIYWASTRHTGVPDRFTGSGSGTDHTLTISSVQAEDLALYYCQQHYSTPVTFGGGTKLEIK
notes: chimeric, hIgG1
Take B1: in the assay with human SLC34A2 [2], the concentration giving a half-maximal response (EC50) worked out at 8.36 nM and the “Top (MFI)” value was 10200 MFI. Further, in the assay with Rhesus SLC34A2 [3], the Top (MFI) stood at 5.4e+06 MFI. Besides, in the assay with human SLC34A2 [4], the “ADCC reporter EC50” value was 3.6 nM and the “ADCC reporter Top (MFI)” value was 247000 MFI. Besides, in the assay with human SLC34A2 [5], the half-maximal effective concentration (EC50) worked out at 7.86 nM and the “Top (MFI)” value was determined as 28900 MFI. In addition, in the assay with human SLC34A2 [6], the EC50 was found to be 2.11 nM and the “Top (MFI)” value was 47900 MFI. In the assay with human SLC34A2 [7], the “cytotoxicity EC50” value was found to be 0.83 nM and the “cytotoxicity Inhibition %” value turned out to be 99.4%.

B2: 91C9F1.p1 hIgG1 (antibody, V domains shown)
VH: EVQLQQSGPELVKPGTSVKISCKTSGFFFTEYIIHWVKQSHGRSLEWIGGIIPNNDVTNYKQNFRGKAALTADKSSNTAYMELRSLTSEDSAVYYCARWRNAYYSAMDSWGQGTSVTVSS
VL: DIVVTQSHKFMSTSLGDRVSITCTASQDVGTAVAWYQQKPGHSPKLLIYWASTRHTGVPERFTGSGSGTDFTLTITNVQSEDLADYFCQQYRTSPLTFGVGTKLELK
notes: PTM-derisked chimeric, hIgG1; also called 91C9F1.pl hIgG1
Consider B2, for which the EC50 amounted to 2.29 nM with human SLC34A2 [8]; 0.68 nM with human SLC34A2 [10]; 2.29 nM with human SLC34A2 [11]; 1 nM with human SLC34A2 [12]; 0.8 nM in the assay with Rhesus SLC34A2 [13]; 2.8 nM with Rhesus SLC34A2 [14]. Besides, the EC50 with human SLC34A2 [15] is 1.09 nM; with human SLC34A2 [16], 1.1 nM. In addition, the Top with human SLC34A2 [8] was 32300 MFI; with human SLC34A2 [15] it was 9690 MFI; with human SLC34A2 [16] it was 19500 MFI. Also, in the assay with human SLC34A2 [9], the “ADCC reporter EC50” value is 3.31 nM. The “ADCC reporter Top (MFI)” value with human SLC34A2 [9] came to 143000 MFI. Also, the “Top (MFI)” value with human SLC34A2 [10] came to 28200 MFI; with human SLC34A2 [11], 32300 MFI; with human SLC34A2 [12], 63500 MFI; in the assay with Rhesus SLC34A2 [13], 7970 MFI; in the assay with Rhesus SLC34A2 [14], 26400 MFI.

B3: 63A11D5B4 VH_P1/VL hIgG1 (antibody, V domains shown)
VH: QVQLQQPGAELVKPGASVKMSCRTSGYTFITYNMHWVKQTPGQGREWIGAIYPGSGDTSYNQKFKGKATLTADKSSSTAYMQLNSLTSEDSAVYYCSISTIITTGAVDYWGQGTSVTVAS
VL: DIVMTQSHKFMSTSVGDRVSITCKASQDVGTAVAWYQQKAGQSPKLLIYWTSTRHTGVPDRFTGSGSGTDFTLIIRSLQSEDLADYFCQQYSRIPLTFGSGTKLEIK
notes: PTM-derisked chimeric, hIgG1; that P1 is the SG version follows from the humanized .p1 chains; also called 63A11D5B4.p1 hIgG1
As for B3, the EC50 with human SLC34A2 [8] was 2.79 nM; with human SLC34A2 [10], 1.48 nM; with human SLC34A2 [12] it was 7.5 nM; with Rhesus SLC34A2 [13] it was 0.7 nM; with Rhesus SLC34A2 [14], 3.9 nM; with human SLC34A2 [17], 4.03 nM. Also, the EC50 came to 12.5 nM in the assay with human SLC34A2 [15] and 4.03 nM in the assay with human SLC34A2 [16]. Moreover, the Top with human SLC34A2 [8] came out at 35600 MFI; in the assay with human SLC34A2 [15], 11700 MFI. Also, the “ADCC reporter EC50” value with human SLC34A2 [9] was 2.83 nM. In addition, the “ADCC reporter Top (MFI)” value in the assay with human SLC34A2 [9] was 114000 MFI. The “Top (MFI)” value came to 30400 MFI in the assay with human SLC34A2 [10]; 75200 MFI with human SLC34A2 [12]; 13800 MFI in the assay with Rhesus SLC34A2 [13]; 39400 MFI with Rhesus SLC34A2 [14]; 28200 MFI with human SLC34A2 [17].
